Data on 167 variants can be found in the RNAGym collection of RNA variant scans (doi:10.7554/elife.80360).

Sequences and labels used below:
B1: HDV Ribozyme (parent)
chain: GGCCGGCAUGGUCCCAGCCUCCUCGCUGGCGCCGGCUGGGCAACAUUCCGAGGGGACCGUCCCCUCGGUAAUGGCGAAUGGGACCCA

The variants in the series derive from B1. Description: self-cleavage, relative activity (ratio to wild type); higher = more cleavage; co-transcriptional.
Regarding A56U C66G, the self-cleavage was determined as 0.997.
As for A56U C66A, the self-cleavage stood at 1.03.
In the case of A56G A87G it was 0.929.
Turning to A56G A87U, the self-cleavage is 0.897.
As to G59U U60C, the self-cleavage turned out to be 1.37.
For the variant G59U U60G, the self-cleavage was determined as 0.88.
Under C58U G74C stands 0.227; under C58U G74U, 0.51.
As to A56C A71C, the self-cleavage came to 0.997.
For the variant A56C A71U, the self-cleavage was 1.11.
For the variant C58U A87C, the self-cleavage is 0.905.
For C58U A87U, the self-cleavage was 0.915.
For G55U G68A, the self-cleavage is 1.03.
In the case of C57A G82U it was 0.585; in that of C57A U72C, 0.856.
Turning to C57A A78G, the self-cleavage came out at 0.63.
Turning to C58G C75G, the self-cleavage came out at 0.415.
Take G59C G80C: the self-cleavage was 0.222.
In the case of C57A G74U it was 0.356; in that of A56C G82C, 0.306; in that of G59C C62G, 0.6.
As to A56C A78G, the self-cleavage stood at 0.706.
With C58A U60A, the self-cleavage was 1.09.
In the case of G59C G68C, the self-cleavage is 1.11.
On to C57U C62A, for which the self-cleavage was found to be 0.941.
In the case of G55U A83C it was 0.554; in that of A56C C58G, 1.26.
With C58G G59A, the self-cleavage came to 1.1.
C58G G59U: the self-cleavage stood at 0.946.
In the case of C58G G59C, the self-cleavage was 1.03.
In the case of G55U G74C it was 0.208; in that of G55U G74U, 0.707.
Under A56G G73U stands 0.249; under A56G G73C, 0.38; under C57G A70G, 0.856.
Turning to C58A A78U, the self-cleavage is 0.424.
A56G U79A: the self-cleavage worked out at 0.277.
With A56G U79C, the self-cleavage stood at 0.242.
As for G55U C57G, the self-cleavage was found to be 0.997.
For C57A U65A, the self-cleavage was determined as 1.09.
For the variant A56G G67A, the self-cleavage was 1.09.
C58G A87C: the self-cleavage stood at 0.919.
Take C58U C85A: the self-cleavage was 1.13.
Regarding G59A U79A, the self-cleavage was 0.884.
As for G59A U79C, the self-cleavage was found to be 0.518.
As to A56U C63A, the self-cleavage amounted to 0.969.
In the case of C57G C63U it was 1.12.
For C57G C63G, the self-cleavage is 1.09.
Take G59A G76A: the self-cleavage was found to be 1.07.
As to G55U A78C, the self-cleavage worked out at 0.18.
As to C58U G67U, the self-cleavage was determined as 1.12.
With A56C A87U, the self-cleavage is 0.986.
As to C58A A83U, the self-cleavage was 0.554.
As to G59U C66U, the self-cleavage turned out to be 0.875.
For the variant G55U G59U, the self-cleavage turned out to be 1.02.
Under C58U G59A stands 1.12; under C58U G59C, 0.923; under A56U C57G, 1.08.
As for A56U C57U, the self-cleavage amounted to 0.886.
Turning to A56U C57A, the self-cleavage was 0.966.
In the case of C58U U69C, the self-cleavage is 0.95.
For the variant C58A U69C, the self-cleavage worked out at 1.17.
As for G55U C58A, the self-cleavage was 0.843.
As for G59U C64A, the self-cleavage was determined as 0.899.
Regarding G59U U72A, the self-cleavage was 0.665.
Take G55U A56U: the self-cleavage was found to be 0.797.
With A56G A77C, the self-cleavage amounted to 0.199.
In the case of C57G C64U, the self-cleavage turned out to be 1.05.
As for C57G C64A, the self-cleavage is 1.04.
On to C57G C64G, for which the self-cleavage is 0.849.
Under G59U G82U stands 0.554; under C58U A78G, 0.77; under C57U G82A, 0.269.
As to C57U G82C, the self-cleavage turned out to be 0.208.
Take U60A A70C: the self-cleavage is 0.808.
For U60A A70G, the self-cleavage was 0.77.
In the case of G59A G67C it was 1.05; in that of A56U G67A, 1.17; in that of C57G C85U, 0.849.
Turning to U60A C86U, the self-cleavage came to 0.831.
Regarding C57G G73U, the self-cleavage amounted to 0.464.
Regarding C57G G68A, the self-cleavage was 1.18.
Regarding A56U C58A, the self-cleavage stood at 1.16.
In the case of A56U C58G, the self-cleavage is 1.08.
In the case of G55U C75A it was 0.153; in that of G59A A77U, 0.574; in that of C57U C75U, 0.188.
In the case of C57U A83U it was 0.475; in that of G55C G68C, 0.752; in that of G59A G74C, 0.198.
G55U C66G: the self-cleavage is 0.901.
Turning to A56U A83C, the self-cleavage came to 0.499.
On to A56U A83U, for which the self-cleavage is 0.318.
In the case of C58A C86U it was 1.1; in that of C58U G80C, 0.203.
For the variant C58U G80A, the self-cleavage was found to be 0.372.
Take G55C U79G: the self-cleavage is 0.802.
On to A56G C61U, for which the self-cleavage stood at 1.08.
C58G C66A: the self-cleavage turned out to be 1.15.
Regarding C58G C66G, the self-cleavage came to 0.95.
As to A56U A70G, the self-cleavage is 1.07.
A56U A70C: the self-cleavage was 0.811.
As for G59U G73A, the self-cleavage is 0.644.
For the variant G59A U69G, the self-cleavage turned out to be 1.
Under G59A U69A stands 1.08.
With U60A A87C, the self-cleavage was 1.
In the case of G59A A71G, the self-cleavage was 0.984.
As for G59A A71U, the self-cleavage came out at 0.929.
Under C58A G68A stands 0.95; under G59C C75A, 0.219; under A56G U65C, 1.05.
C57A G67A: the self-cleavage turned out to be 0.926.
As for C58G U60G, the self-cleavage is 0.532.
Regarding C58G G67A, the self-cleavage was 1.28.
As for C57G U79C, the self-cleavage is 0.598.
On to C57G U79A, for which the self-cleavage is 0.802.
In the case of C57G G81U, the self-cleavage is 0.388.
Consider A56G U69G, for which the self-cleavage came out at 0.831.
Take G55C G80C: the self-cleavage was 0.388.
For G59A G73U, the self-cleavage worked out at 0.267.
Consider A56G G59U, for which the self-cleavage is 1.06.
In the case of C58G C63U it was 1.04; in that of C57A C61G, 1.05.
For the variant C57U G81U, the self-cleavage came to 0.353.
In the case of C58G G74A it was 0.499; in that of A56C G80U, 0.253; in that of A56U A77U, 0.623.
For the variant U60A C63G, the self-cleavage is 0.851.
Under G59U G67A stands 1.05; under A56G U72A, 0.643.
In the case of A56G U72C it was 0.782.
For the variant C57A A87U, the self-cleavage was determined as 1.13.
Regarding C57A A87C, the self-cleavage amounted to 1.05.
Take U60A C85G: the self-cleavage is 0.673.
Consider U60A C85U, for which the self-cleavage was 0.912.
Regarding C57U G67U, the self-cleavage came out at 0.974.
Under A56U G76U stands 0.95; under A56U G76C, 1.14.
For the variant C58U C62G, the self-cleavage is 0.812.
As for C58G G73U, the self-cleavage stood at 0.217.
For the variant C58A G73A, the self-cleavage was found to be 0.787.
Under G55C U60C stands 1.07; under G55U C64G, 0.781; under C57A C84A, 0.789.
Consider C57A C84G, for which the self-cleavage stood at 0.727.
On to G55C G82A, for which the self-cleavage amounted to 0.447.
For C58G C61G, the self-cleavage came out at 0.88.
Turning to C58G C61U, the self-cleavage was determined as 0.851.
In the case of C57G C61G, the self-cleavage turned out to be 1.08.
As for C58A C63U, the self-cleavage was 1.02.
For A56U U69G, the self-cleavage was found to be 0.959.
Regarding A56U G82A, the self-cleavage is 0.543.
In the case of A56U G82U it was 0.462; in that of C58U C64G, 0.895.
With G55U G81A, the self-cleavage stood at 0.287.
Consider C57A C58U, for which the self-cleavage was 1.05.
As to C57A C58G, the self-cleavage is 1.14.
As to A56U G73U, the self-cleavage came to 0.415.
For A56U G73C, the self-cleavage came out at 0.698.
A56U G73A: the self-cleavage was found to be 0.752.
As for U60A C66A, the self-cleavage was found to be 0.972.
In the case of U60A C66G it was 0.878; in that of U60A C66U, 1.12; in that of C58G U69G, 1.17.
Take C58G U69C: the self-cleavage turned out to be 1.36.
C58G U69A: the self-cleavage came to 0.911.
On to A56G C86G, for which the self-cleavage amounted to 1.17.
